{"source": "paper doi:10.1101/844506v1", "proteins": {"B1": {"name": "B8CYA8 (β-glucosidase from Halothermothrix orenii) (Halothermothrix orenii H 168) (protein)", "chain": "MAKIIFPEDFIWGAATSSYQIEGAFNEDGKGESIWDRFSHTPGKIENGDTGDIACDHYHLYREDIELMKEIGIRSYRFSTSWPRILPEGKGRVNQKGLDFYKRLVDNLLKANIRPMITLYHWDLPQALQDKGGWTNRDTAKYFAEYARLMFEEFNGLVDLWVTHNEPWVVAFEGHAFGNHAPGTKDFKTALQVAHHLLLSHGMAVDIFREEDLPGEIGITLNLTPAYPAGDSEKDVKAASLLDDYINAWFLSPVFKGSYPEELHHIYEQNLGAFTTQPGDMDIISRDIDFLGINYYSRMVVRHKPGDNLFNAEVVKMEDRPSTEMGWEIYPQGLYDILVRVNKEYTDKPLYITENGAAFDDKLTEEGKIHDEKRINYLGDHFKQAYKALKDGVPLRGYYVWSLMDNFEWAYGYSKRFGLIYVDYENGNRRFLKDSALWYREVIEKGQVEAN"}}, "substrate": "O=[N+]([O-])c1ccc(O[C@@H]2O[C@H](CO)[C@@H](O)[C@H](O)[C@H]2O)cc1", "assay": "purified protein", "settings": "no added glucose"}
{"protein": "B1", "values": [{"measurement": "Km", "result": "1800 ± 100", "unit": "µM"}, {"measurement": "kcat", "result": "339.0 ± 28.3", "unit": "s⁻¹"}]}
